T1: human LAG-3 expressed on cells (human, UniProt P18627 23-525)
T1 construct: the transgene of the cell lines is not tied to it by name; also called hLAG-3; 3A9.hLAG-3
T1 sequence: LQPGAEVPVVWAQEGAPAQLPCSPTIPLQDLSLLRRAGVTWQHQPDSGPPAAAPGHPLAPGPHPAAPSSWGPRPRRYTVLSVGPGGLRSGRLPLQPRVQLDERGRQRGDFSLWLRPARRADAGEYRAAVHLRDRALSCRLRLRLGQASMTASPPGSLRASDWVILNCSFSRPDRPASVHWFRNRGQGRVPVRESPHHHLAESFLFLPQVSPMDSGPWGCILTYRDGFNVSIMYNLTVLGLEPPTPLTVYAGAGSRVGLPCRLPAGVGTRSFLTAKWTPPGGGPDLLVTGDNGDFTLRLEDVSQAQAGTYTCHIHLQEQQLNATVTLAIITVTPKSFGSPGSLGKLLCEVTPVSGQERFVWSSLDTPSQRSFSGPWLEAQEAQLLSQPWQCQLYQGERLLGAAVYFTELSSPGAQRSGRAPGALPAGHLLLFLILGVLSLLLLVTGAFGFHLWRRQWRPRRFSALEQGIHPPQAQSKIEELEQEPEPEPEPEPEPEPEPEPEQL

T2: human LAG-3-hFc (human, UniProt P18627 23-450)
T2 construct: also called human LAG3-Fc; not shown: human Fc (hFc)
T2 sequence: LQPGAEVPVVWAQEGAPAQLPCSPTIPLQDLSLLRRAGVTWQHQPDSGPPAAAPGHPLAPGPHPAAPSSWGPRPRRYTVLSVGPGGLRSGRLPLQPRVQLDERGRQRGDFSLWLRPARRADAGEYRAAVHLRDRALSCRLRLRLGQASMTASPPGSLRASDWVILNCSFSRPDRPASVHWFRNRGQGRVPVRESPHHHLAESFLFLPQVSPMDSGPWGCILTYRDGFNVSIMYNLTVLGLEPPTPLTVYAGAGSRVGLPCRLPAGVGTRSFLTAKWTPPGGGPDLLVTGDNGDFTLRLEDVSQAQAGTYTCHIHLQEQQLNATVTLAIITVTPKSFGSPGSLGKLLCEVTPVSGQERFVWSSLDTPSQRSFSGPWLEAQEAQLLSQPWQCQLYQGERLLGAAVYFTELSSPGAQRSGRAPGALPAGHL

B1: F023700275 (1PD102C12(A14P, A74S, K83R)-FLAG3-HIS6) (VHH)
VHH: EVQLVESGGGLVQPGGSLRLSCAASGSIASIHAMGWFRQAPGKEREFVAVITWSGGITYYADSVKGRFTISRDNSKNTVYLQMNSLRPEDTAIYYCAGDKHQSSWYDYWGQGTLVTVSS
notes: Monovalent anti-human PD-1 Nanobody, parent of F023700706
B2: F0237611B09-FLAG3-HIS6 (VHH)
VHH: EVQLVESGGGLVQAGGSLRLSCAASGRTFSDYVMGWFRQARGNEREFVAAISESGGRTHYADAVKGRFTISRDNAKNTLYLQMNSLKPEDTAVYYCATTLLWWTSEYAPIKANDYDYWGQGTLVTVSS
notes: Original monovalent anti-human LAG-3 Nanobody; also called F0237611B09-FLAG-His6; F02376611B09

How the values were obtained:
[1] = target: T3, human PD-1 expressed on cells (human, UniProt Q15116 25-288); assay: flow cytometry ligand competition on CHO cells over-expressing human PD-1
T3 construct: the transgene of the cell lines is not tied to it by name; also called hPD-1; CHO.hPD-1
Description: Ligand competition assays were performed on human PD-1 over-expressing CHO cells. A Nanobody dilution series was prepared in assay buffer: PBS/10% FBS/0.05% sodium azide. […] 2×10⁴ cells/well were seeded in V-bottom 96-well plates and resuspended in 200 μL/well of the Nanobody/ligand dilution. After 90 minutes incubation at 4° C., the cells were washed with 100 μL/well assay buffer and resuspended in 100 μL/well PE-labeled Goat anti-human IgG (Southern Biotech, 2043-09). Samples were incubated for 30 minutes at 4° C., washed, and resuspended in 100 μL/well of 5 nM TOPRO3 (LifeTechnologies, T3606) solution before analysis on FACS CANTO II (BD).

[2] = target: T1, human LAG-3 expressed on cells; assay: flow cytometry on 3A9 cells over-expressing human LAG-3
Description: Binding to cell-expressed human LAG-3 was evaluated on human LAG-3 over-expressing 3A9 cells. A Nanobody dilution series was prepared in assay buffer: PBS/10% FBS/0.05% sodium azide. 1×10⁵ cells/well were transferred to a 96-well V-bottom plate and resuspended in 100 μL Nanobody dilution. After 30 minutes incubation at 4° C., the cells were washed with 100 μL/well assay buffer and resuspended in 100 μL/well of 1 μg/ml anti-FLAG (Sigma, F1804). […] Samples were incubated for 30 minutes at 4° C., washed, and resuspended in 100 μL/well of 5 nM TOPRO3 (LifeTechnologies, T3606) solution before analysis on FACS CANTO II (BD).

human LAG-3-hFc = target: T2, human LAG-3-hFc; assay: flow cytometry ligand competition; LAG-3-hFc on Daudi cells
Description: A Nanobody dilution series was prepared in assay buffer: HBSS/2% FBS. Prior to the experiment, Fc receptors on the Daudi cells were blocked with human Fc block (BD Pharmingen, 564220) and 5 μg/mL goat IgG (Jackson ImmunoResearch, 005-000-003) for 30 minutes at 4° C. […] 1×10⁵ cells/well were seeded in V-bottom 96-well plates and resuspended in 100 μL/well of the Nanobody/ligand dilution. After 30 minutes incubation at 4° C., the cells were washed and resuspended in 100 μL/well PE-labeled Goat anti-human IgG (Southern Biotech, 2043-09). Samples were incubated for 15 minutes at 4° C., washed, and resuspended in 100 μL/well of 5 nM TOPRO3 (LifeTechnologies, T3606) solution before analysis on FACS CANTO II (BD).

T3 sequence (Q15116 25-288 limits assumed): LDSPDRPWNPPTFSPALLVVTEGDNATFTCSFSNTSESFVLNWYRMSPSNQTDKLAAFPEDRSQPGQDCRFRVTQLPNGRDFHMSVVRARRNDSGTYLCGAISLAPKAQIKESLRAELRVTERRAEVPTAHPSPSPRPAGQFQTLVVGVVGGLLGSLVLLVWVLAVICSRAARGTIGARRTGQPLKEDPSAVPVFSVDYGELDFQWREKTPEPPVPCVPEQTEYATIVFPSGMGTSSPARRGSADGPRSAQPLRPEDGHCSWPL

Binder	binding result [1]	binding result [2]	binding result (human LAG-3-hFc)
B1	binds		
B2		binds	binds
